What all share (assay type): biochemical
Test [1] addresses T1, Bovine trypsin (Bos taurus, UniProt P00760).
T1 construct: purchased Sigma Chemical Co. Type XIII
T1 sequence (P00760 24-246): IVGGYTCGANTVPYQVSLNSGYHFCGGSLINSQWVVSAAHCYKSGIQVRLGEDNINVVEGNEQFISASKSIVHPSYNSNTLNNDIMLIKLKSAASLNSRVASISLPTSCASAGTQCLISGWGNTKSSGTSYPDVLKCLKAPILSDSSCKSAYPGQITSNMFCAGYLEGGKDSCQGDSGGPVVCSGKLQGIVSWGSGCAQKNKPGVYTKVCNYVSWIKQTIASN
Nature of the test: Bovine trypsin-inhibiting activity (synthetic substrate S-2444). The settings on record: purified polypeptide, serially diluted. As to the method: The purified polypeptide of the present invention was dissolved in 100 μl of distilled water, and the solution was serially diluted with a 0.1% BSA/0.2M triethanolamine-HCl buffer (pH 7.8) for use in the activity measurement. Measurement of the trypsin-inhibiting activity in the thus prepared test sample was carried out in accordance with the Kassell's method (Kassell, B. et al., Methods in Enzymology, vol.19, pp.844-852, 1970) using a synthetic substrate S-2444 (Daiichi Pure Chemicals Co., Ltd.).
Bovine trypsin (Type XIII, Sigma Chemical Co.) was dissolved in 0.001M HCl to a final concentration of 13,600 BAEEU/ml and the solution was further diluted with 0.1% BSA/0.2M triethanolamine-HCl buffer (pH 7.8) to prepare 1.2 BAEEU/ml of trypsin solution. Separately from this, 2 mM solution of the synthetic substrate S-2444 was prepared by dissolving it in distilled water. Next, 100 μl of the test sample was mixed with 100 μl of the trypsin solution. After incubating statically at 37° C. for 10 minutes, 50 μl of the S-2444 solution was added to start the reaction. The reaction was carried out at 37° C. for 15 minutes and then stopped by adding 50 μl of 50% acetic acid solution to the reaction mixture. Thereafter, absorbance at a wavelength of 405 nm was measured using a spectrophotometer. In this instance, in order to eliminate absorbancy of various contents in the reaction mixture other than the reaction product, a blank solution was prepared by mixing 100 μl of the bovine trypsin solution with 50 μl of 50% acetic acid and then with 100 μl of each test sample and 50 μl of the S-2444 solution.

For test [2], the target named is T2, human FXa (Homo sapiens, UniProt P00742).
T2 construct: purchased American Diagnostica Inc
T2 sequence (P00742 235-488 limits assumed): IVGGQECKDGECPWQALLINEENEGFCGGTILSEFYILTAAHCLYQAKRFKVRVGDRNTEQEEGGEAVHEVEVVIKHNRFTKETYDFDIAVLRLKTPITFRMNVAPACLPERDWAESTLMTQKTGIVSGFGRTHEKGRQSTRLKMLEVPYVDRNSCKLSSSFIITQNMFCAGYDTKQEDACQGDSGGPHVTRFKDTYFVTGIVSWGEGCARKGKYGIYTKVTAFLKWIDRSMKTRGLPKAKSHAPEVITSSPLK
T2 sequence (P00742 41-179 partner limits assumed): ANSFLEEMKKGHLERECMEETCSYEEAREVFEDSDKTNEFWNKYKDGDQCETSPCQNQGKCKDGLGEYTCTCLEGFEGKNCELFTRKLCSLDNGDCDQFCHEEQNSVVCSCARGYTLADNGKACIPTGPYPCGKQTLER
Nature of the test: FXa-inhibiting activity (synthetic substrate S-2222). The settings on record: concentration expressed as bovine trypsin-inhibiting activity; for FXa-inhibiting activity, times higher than that of polypeptide AN68: relative to control AN68; for FXa-inhibiting activity, times higher than that of polypeptide TN70: relative to control TN70. As to the method: The purified polypeptide of the present invention was dissolved in 100 μl of distilled water. Polypeptide concentration of this solution was determined based on its bovine trypsin-inhibiting activity measured in accordance with the above procedure (1) using the aforementioned UTI as a standard. The thus prepared solution was then diluted to various concentration levels with 0.1% BSA/150 mM NaCl/5 mM CaCl2 /50 mM Tris-HCl buffer (pH 8.3) for use in the activity measurement. Separately from this, a polypeptide TN70 (cf. Japanese Patent Application No. 3-325220) and polypeptide AN68 were purified respectively in accordance with the procedure of Example 2(4) from a culture supernatant of E. coli JE5505(pM552) (deposit No., FERM BP-3561) and E. coli JE5505(pM594) obtained by transforming E. coli JE5505 with the aforementioned plasmid pM594 obtained in Example 4. The thus purified polypeptide TN70 and AN68 were diluted to various concentration levels to be used as control solutions.
Using a synthetic compound S-2222 (Daiichi Pure Chemicals Co., Ltd.) as a substrate, FXa-inhibiting activities in the thus prepared test sample solution and control solution were measured in accordance with the method of Ohno et al. (Ohno H. et al., Thromb. Res., vol.19, pp.579-588, 1980) as follows. First, human FXa (American Diagnostica Inc.) was dissolved in distilled water to a final concentration of 10 PEU/ml and the solution was further diluted with the aforementioned 0.1% BSA/150 mM NaCl/5 mM CaCl2 /50 mM Tris-HCl buffer (pH 8.3) to prepare 0.1 PEU/ml of FXa solution. Separately from this, a 4 mM solution of S-2222 was prepared by dissolving it in distilled water and the solution was further diluted with the 0.1% BSA/150 mM NaCl/5 mM CaCl2 /50 mM Tris-HCl buffer (pH 8.3) to obtain a 2 mM solution of S-2222.
Next, 25 μl of the test sample or control solution was mixed with 100 μl of the 0.1% BSA/150 mM NaCl/5 mM CaCl2 /50 mM Tris-HCl buffer (pH 8.3) and 25 μl of the FXa solution. After incubating statically at 37° C. for 10 minutes, 100 μl of the S-2222 solution was added to start the reaction. The reaction was carried out at 37° C. for 30 minutes and then stopped by adding 50 μl of 50% acetic acid solution to the reaction mixture. Thereafter, absorbance at a wavelength of 405 nm was measured using a spectrophotometer. In this instance, in order to eliminate absorbancy of various contents in the reaction mixture other than the reaction product, a blank solution was prepared by mixing 25 μl of the FXa solution with 50 μl of 50% acetic acid and then with 25 μl of each test sample or the control solution, 100 μl of the 0.1% BSA/150 mM NaCl/5 mM CaCl2 /50 mM Tris-HCl buffer (pH 8.3) and with 100 μl of the S-2222 solution.
The results are shown in FIG. 45 to FIG. 53 and FIG. 66. In these figures, polypeptide concentration in the reaction solution was expressed as its bovine trypsin-inhibiting activity. Also, residual human FXa activity was expressed by percentage based on the absorbance of a control reaction mixture in which 25 μl of the 0.1% BSA/150 mM NaCl/5 mM CaCl2 /50 mM Tris-HCl buffer (pH 8.3) was used instead of the test sample.

Test [3] concerns the target T3, human trypsin (Homo sapiens, UniProt P07477).
T3 construct: purchased Calbiochem
Nature of the test: Human trypsin-inhibiting activity (synthetic substrate S-2444). The settings on record: purified polypeptide, various concentration levels. As to the method:
The purified polypeptide of the present invention was dissolved in 100 μl of distilled water. Concentration of polypeptide in the thus prepared solution was determined based on its bovine trypsin-inhibiting activity measured in accordance with the above procedure (1) using UTI (Mochida Pharmaceutical Co., Ltd.; cf. H. Ohnishi et al., Nippon Yakurigaku Zasshi, vol.85, pp.1-6, 1985) as a standard. The polypeptide solution was then diluted to various concentration levels with 0.03% BSA/0.2M triethanolamine-HCl buffer (pH 7.8) for use in the activity measurement. Separately from this, human trypsin (Calbiochem) was dissolved in 1 mM HCl to a concentration of 1,000 SU/ml and the solution was further diluted with the 0.03% BSA/0.2M triethanolamine-HCl buffer (pH 7.8) to prepare a 1.25 SU/ml solution of human trypsin. Thereafter, human trypsin-inhibiting activity was measured in the same manner as described in the above procedure (1) using the aforementioned synthetic substrate S-2444. Separately from this, polypeptide AN68 (sequence described in Example 17(3)) was diluted to various concentration levels. Thereafter, human trypsin-inhibiting activity was measured in the same manner as described in the above procedure (1) and compared with the trypsin-inhibiting activity of the novel polypeptide of the present invention.

As for “R11E/Y46E: formula 1 sequence with Glu for position 7 Arg and Glu for position 42 Tyr; SEQ. I.D. No. 10; plasmid pM726B (AACNLPIVEGPCRAFIQLWAFDAVKGKCVLFPYGGCQGNGNKFESEK)”, the bovine trypsin inhibition entry in test [1] was “can inhibit bovine trypsin in a concentration-dependent manner”. Moreover, the “FXa-inhibiting activity, times higher than that of polypeptide AN68” value (“FXa-inhibiting activity … of polypeptide AN68” below) in test [2] is given as “about three”. The human trypsin inhibition result in test [3] was “can inhibit human trypsin in a concentration-dependent manner”.

“Y46E: formula 1 sequence with Glu for position 42 Tyr; amino acids 1-70 of SEQ. I.D. NO. 2; from plasmid pM575B (TVAACNLPIVRGPCRAFIQLWAFDAVKGKCVLFPYGGCQGNGNKFESEK)”: the bovine trypsin inhibition result in test [1] is listed as “can inhibit bovine trypsin in a concentration-dependent manner”. In addition, the “FXa-inhibiting activity, times higher than that of polypeptide TN70” value in test [2] is reported as “about seven”. For the same molecule, the human trypsin inhibition entry in test [3] was “can inhibit human trypsin in a concentration-dependent manner”.

“Q19R/Y46E: formula 1 sequence with Arg for position 15 Gln and Glu for position 42 Tyr; SEQ. I.D. NO. 16; plasmid pM737B (AACNLPIVRGPCRAFIRLWAFDAVKGKCVLFPYGGCQGNGNKFESEK)”: the bovine trypsin inhibition entry in test [1] was “can inhibit bovine trypsin in a concentration-dependent manner”. Also, the “FXa-inhibiting activity … of polypeptide AN68” value in test [2] was “about ten”. Also, the human trypsin inhibition entry in test [3] is on record as “can inhibit human trypsin in a concentration-dependent manner”.

Turning to “Q19R: formula 1 sequence with Arg for position 15 Gln; amino acids 1-68 of SEQ. I.D. NO. 6; plasmid pM735 (AACNLPIVRGPCRAFIRLWAFDAVKGKCVLFPYGGCQGNGNKFYSEK)”, in test [1], the bovine trypsin inhibition entry was “can inhibit bovine trypsin in a concentration-dependent manner”. In addition, the “FXa-inhibiting activity … of polypeptide AN68” value in test [2] is recorded as “about six”. In test [3], the human trypsin inhibition result was “can inhibit human trypsin in a concentration-dependent manner”.

For the molecule “Q19K/Y46E: formula 1 sequence with Lys for position 15 Gln and Glu for position 42 Tyr; SEQ. I.D. NO. 8; plasmid pM736 (AACNLPIVRGPCRAFIKLWAFDAVKGKCVLFPYGGCQGNGNKFESEK)”, the bovine trypsin inhibition result in test [1] was “can inhibit bovine trypsin in a concentration-dependent manner”. In test [2], the “FXa-inhibiting activity … of polypeptide AN68” value was “about ten”. In addition, in test [3], the human trypsin inhibition result was “can inhibit human trypsin in a concentration-dependent manner”.

For “Y46E-AN: formula 1 sequence with Glu for position 42 Tyr; amino acids 1-68 of SEQ. I.D. NO. 12; plasmid pM575C (MKQSTIALALLPLLFTPVTKA)”, the bovine trypsin inhibition result in test [1] is “can inhibit bovine trypsin in a concentration-dependent manner”. In addition, the human trypsin inhibition entry in test [3] was “can inhibit human trypsin in a concentration-dependent manner”.

On to “Q19K-AN: formula 1 sequence with Lys for position 15 Gln; amino acids 1-68 of SEQ. I.D. NO. 14; plasmid pM576B (AACNLPIVRGPCRAFIKLWAFDAVKGKCVLFPYGGCQGNGNKFYSEK)”, for which, in test [1], the bovine trypsin inhibition entry is listed as “can inhibit bovine trypsin in a concentration-dependent manner”. Moreover, the human trypsin inhibition result in test [3] was “can inhibit human trypsin in a concentration-dependent manner”.

Turning to “Q19K: formula 1 sequence with Lys for position 15 Gln; amino acids 1-70 of SEQ. I.D. NO. 4; plasmid pM576 (DDAACNLPIVRGPCRAFIKLWAFDAVKGKCVLFPYGGCQGNGNKFYSEK)”, in test [1], the bovine trypsin inhibition entry was “can inhibit bovine trypsin in a concentration-dependent manner”. The “FXa-inhibiting activity, times higher than that of polypeptide TN70” value in test [2] is reported as “about five”. The human trypsin inhibition result in test [3] is “can inhibit human trypsin in a concentration-dependent manner”.

B1: Q19R/Y46D: formula 1 sequence with Arg for position 15 Gln and Asp for position 42 Tyr; SEQ. I.D. NO. 36; plasmid pM744 (protein)
chain: AACNLPIVRGPCRAFIRLWAFDAVKGKCVLFPYGGCQGNGNKFDSEKECREYCGVPGDGDEELLRFSN
Turning to B1, the bovine trypsin inhibition result in test [1] is recorded as “can inhibit bovine trypsin in a concentration-dependent manner”. Besides, the “FXa-inhibiting activity … of polypeptide AN68” value in test [2] is reported as “about 18 times”. The human trypsin inhibition result in test [3] was “can inhibit human trypsin in a concentration-dependent manner”.

B2: Q19K/Y46D: formula 1 sequence with Lys for position 15 Gln and Asp for position 42 Tyr; SEQ. I.D. NO. 35; plasmid pM727 (protein)
chain: AACNLPIVRGPCRAFIKLWAFDAVKGKCVLFPYGGCQGNGNKFDSEKECREYCGVPGDGDEELLRFSN
In the case of B2, the bovine trypsin inhibition entry in test [1] is “can inhibit bovine trypsin in a concentration-dependent manner”. In test [2], the “FXa-inhibiting activity … of polypeptide AN68” value is given as “about twenty”. In addition, the human trypsin inhibition entry in test [3] was “can inhibit human trypsin in a concentration-dependent manner”.

Values taken from patent US5679770A, “Polypeptide, DNA fragment encoding the same, drug composition containing the same and process for producing the same” (Mochida Pharmaceutical Co., Ltd., priority 1991, dated 1997).
